{
  "source": "paper PMC6760448",
  "about": "“The DRS–AIMP2–EPRS subcomplex acts as a pivot in the multi-tRNA synthetase complex” (IUCrJ, 2019)",
  "key": {"[1]": {"target": "T1, N-terminally truncated human AIMP2 splice variant lacking exon 2 (residues Ser34–Gln45 and Asp115–Lys320) (human, UniProt Q13155 34-45; Q13155 115-320)", "T1 construct": "human AIMP2, residues Asp115–Lys320 (exons 3 and 4, GST domain); joined directly to Gln45 as in the splice variant AIMP2-DX2 that lacks exon 2; also called AIMP2-DX2-S34; AIMP2GST; source: E. coli BL21-CodonPlus (DE3)-RIPL; culture pooled with those of the partners, co-purified (HiTrap Chelating HP, Superdex 200); not shown: His6, C-terminal, kept", "T1 sequence (looked up)": "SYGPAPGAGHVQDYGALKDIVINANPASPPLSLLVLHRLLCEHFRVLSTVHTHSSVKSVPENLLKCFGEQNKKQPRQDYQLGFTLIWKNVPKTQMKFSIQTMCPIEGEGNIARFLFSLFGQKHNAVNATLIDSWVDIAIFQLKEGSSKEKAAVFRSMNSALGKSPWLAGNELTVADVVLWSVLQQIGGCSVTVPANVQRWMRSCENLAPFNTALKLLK", "assay": "SEC; separately transformed strains pooled in one culture, proteins met on cell disruption by sonication; His6 affinity (HiTrap Chelating HP), then HiLoad 16/600 Superdex 200 pg in 50 mM HEPES–NaOH pH 8.0, 200 mM NaCl, 5 mM DTT, 1% glycerol; SDS–PAGE of the highest peak", "settings": "partners not purified"}, "[2]": {"target": "the molecule itself", "assay": "crystal structure; DRS–AIMP2-DX2-S34–EPRSGST (DA2E) subcomplex, 3.6 Å, space group P6_(1), two subcomplexes in the asymmetric unit; crystals at 22°C from sodium/potassium phosphate, 0.1 M CAPS pH 10.5, lithium sulfate"}},
  "data": [
    {"binder": "C-terminally truncated human EPRSGST (Met1–Gln157) (domain or fragment, UniProt P07814 1-157, looked up, human glutamyl-prolyl-tRNA synthetase (EPRS), GST domain, residues Met1–Gln157; also called GST domain of glutamyl-prolyl-tRNA synthetase; source: E. coli BL21-CodonPlus (DE3)-RIPL; culture pooled with those of the partners, co-purified (HiTrap Chelating HP, Superdex 200); not shown: His6, C-terminal, kept) MATLSLTVNSGDPPLGALLAVEHVKDDVSISVEEGKENILHVSENVIFTDVNSILRYLARVATTAGLYGSNLMEHTEIDHWLEFSATKLSSCDSFTSTINELNHCLSLRTYLVGNSLSLADLCVWATLKGNAAWQEQLKQKKAPVHVKRWFGFLEAQ", "values": [
      {"measurement": "binding result", "setting": "[1]", "value": "binds"}
    ]},
    {"binder": "N-terminally truncated human aspartyl-tRNA synthetase (residues Ala21–Pro501) (enzyme, UniProt P14868 21-501, looked up, human aspartyl-tRNA synthetase (DRS), cytosolic, residues Ala21–Pro501; Homodimer in the crystal structure of the DA2E subcomplex; No removal of the His6 tag is described; also called DRS; source: E. coli Rosetta2 (DE3)pLysS; culture pooled with those of the partners, co-purified (HiTrap Chelating HP, Superdex 200); not shown: His6, N-terminal, kept) AEDYAKERYGISSMIQSQEKPDRVLVRVRDLTIQKADEVVWVRARVHTSRAKGKQCFLVLRQQQFNVQALVAVGDHASKQMVKFAANINKESIVDVEGVVRKVNQKIGSCTQQDVELHVQKIYVISLAEPRLPLQLDDAVRPEAEGEEEGRATVNQDTRLDNRVIDLRTSTSQAVFRLQSGICHLFRETLINKGFVEIQTPKIISAASEGGANVFTVSYFKNNAYLAQSPQLYKQMCICADFEKVFSIGPVFRAEDSNTHRHLTEFVGLDIEMAFNYHYHEVMEEIADTMVQIFKGLQERFQTEIQTVNKQFPCEPFKFLEPTLRLEYCEALAMLREAGVEMGDEDDLSTPNEKLLGHLVKEKYDTDFYILDKYPLAVRPFYTMPDPRNPKQSNSYDMFMRGEEILSGAQRIHDPQLLTERALHHGIDLEKIKAYIDSFRFGAPPHAGGGIGLERVTMLFLGLHNVRQTSMFPRDPKRLTP", "values": [
      {"measurement": "binding result", "setting": "[2]", "value": "binds"}
    ]}
  ]
}
